Where no end group is shown, it is not given here.

The target in assay [1] is T1, DDB1·CRBN precomplexed with PT-179 (human, UniProt Q96SW2 1-442; Q16531 1-1140). The assay is described as follows: BLI, immobilized MBP-degron; ratio of the KD values. In general terms: Biolayer interferometry detects binding as a change in optical thickness at a sensor tip.
Assay [2] deals with T1, DDB1·CRBN precomplexed with PT-179. The assay is described as follows: BLI, immobilized MBP-degron, DDB1·CRBN precomplexed with PT-179.
Assay [3] concerns the target T2, DDB1·CRBN precomplexed with pomalidomide (human, UniProt Q96SW2 1-442; Q16531 1-1140).
T2 construct: also called CRBN·pomalidomide
The assay can be described thus: BLI, immobilized MBP-degron, DDB1·CRBN precomplexed with pomalidomide.

In assay [4] the target is T1, DDB1·CRBN precomplexed with PT-179. The assay can be described thus: bio-layer interferometry, immobilized MBP-degron, DDB1·CRBN precomplexed with PT-179.
In assay [5] the target is T2, DDB1·CRBN precomplexed with pomalidomide. The assay can be described thus: bio-layer interferometry, immobilized MBP-degron, DDB1·CRBN precomplexed with pomalidomide.

T1 sequence (Q96SW2 whole entry, chain 1 of 2): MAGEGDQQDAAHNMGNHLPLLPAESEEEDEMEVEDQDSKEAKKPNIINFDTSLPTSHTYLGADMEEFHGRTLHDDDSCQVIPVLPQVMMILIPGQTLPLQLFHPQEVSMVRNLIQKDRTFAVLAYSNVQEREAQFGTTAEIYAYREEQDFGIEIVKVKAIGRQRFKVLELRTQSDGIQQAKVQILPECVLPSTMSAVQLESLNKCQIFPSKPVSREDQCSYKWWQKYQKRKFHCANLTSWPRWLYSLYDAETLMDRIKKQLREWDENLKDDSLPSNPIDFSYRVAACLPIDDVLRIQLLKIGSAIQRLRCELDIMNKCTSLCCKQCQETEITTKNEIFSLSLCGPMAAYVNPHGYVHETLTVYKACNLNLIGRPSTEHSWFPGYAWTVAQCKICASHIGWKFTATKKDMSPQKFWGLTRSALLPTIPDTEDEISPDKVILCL
T1 sequence (Q16531 whole entry, chain 2 of 2): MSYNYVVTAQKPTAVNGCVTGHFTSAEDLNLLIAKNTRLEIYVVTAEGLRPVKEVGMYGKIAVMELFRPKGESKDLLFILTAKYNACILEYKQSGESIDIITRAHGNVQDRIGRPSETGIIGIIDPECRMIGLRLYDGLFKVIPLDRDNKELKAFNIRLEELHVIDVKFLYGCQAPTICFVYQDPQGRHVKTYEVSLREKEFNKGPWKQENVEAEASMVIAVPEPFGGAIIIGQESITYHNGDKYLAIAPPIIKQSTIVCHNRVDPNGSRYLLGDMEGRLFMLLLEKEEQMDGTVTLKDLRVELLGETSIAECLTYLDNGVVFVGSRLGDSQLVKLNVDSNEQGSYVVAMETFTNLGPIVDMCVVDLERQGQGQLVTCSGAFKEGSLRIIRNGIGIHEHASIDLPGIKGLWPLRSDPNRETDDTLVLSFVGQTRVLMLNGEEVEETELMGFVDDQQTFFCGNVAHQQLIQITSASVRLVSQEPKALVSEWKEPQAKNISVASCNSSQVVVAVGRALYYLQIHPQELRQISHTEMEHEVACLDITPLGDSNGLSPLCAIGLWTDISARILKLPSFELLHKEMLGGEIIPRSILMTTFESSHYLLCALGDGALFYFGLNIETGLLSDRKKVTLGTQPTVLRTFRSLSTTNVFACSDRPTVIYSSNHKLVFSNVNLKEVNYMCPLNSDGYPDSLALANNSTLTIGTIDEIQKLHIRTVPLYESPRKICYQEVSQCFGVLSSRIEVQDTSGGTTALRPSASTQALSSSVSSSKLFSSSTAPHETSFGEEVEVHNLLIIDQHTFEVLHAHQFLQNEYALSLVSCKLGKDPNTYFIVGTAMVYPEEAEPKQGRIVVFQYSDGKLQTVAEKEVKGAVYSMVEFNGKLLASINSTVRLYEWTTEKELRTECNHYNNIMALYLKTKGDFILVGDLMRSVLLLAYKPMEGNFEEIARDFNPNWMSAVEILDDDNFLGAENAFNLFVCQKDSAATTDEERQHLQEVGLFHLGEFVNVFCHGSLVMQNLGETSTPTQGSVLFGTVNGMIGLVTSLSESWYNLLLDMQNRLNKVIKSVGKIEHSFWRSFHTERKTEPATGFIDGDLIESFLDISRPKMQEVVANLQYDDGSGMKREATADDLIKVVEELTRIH
T2 sequence (Q96SW2 whole entry, chain 1 of 2): as the sequence (Q96SW2 whole entry, chain 1 of 2) above
T2 sequence (Q16531 whole entry, chain 2 of 2): as the sequence (Q16531 whole entry, chain 2 of 2) above

B1: MBP-SD40 (minimal evolved degron SD40 fused to maltose binding protein) (designed binder, not shown: large carriers)
chain: LLLFCPICGFTCRQKGNLLRHINLHTGEKLFKYHLY
modifications: cysteine pairing not given here; also: fused to maltose binding protein, limits and linker not given here
notes: Expressed and purified from E. coli, immobilized for BLI; also called MBP-degron
Regarding B1, in assay [1], the “fold preference for CRBN precomplexed with PT-179 over CRBN precomplexed with pomalidomide” value worked out at 2.4 fold. Further, the equilibrium dissociation constant (Kd) – broadly, the constant that tells how readily two partners part at equilibrium – in assay [2] came to 123 nM; in assay [3], 295 nM. Also, the off-rate (koff) (as a rule, a measure of how fast the partners let go of each other) came to 0.00528 s⁻¹ in assay [4] and 0.0161 s⁻¹ in assay [5]. For the same molecule, the kon – broadly, the second-order rate constant of association – stood at 42900 M⁻¹ s⁻¹ in assay [4] and 54600 M⁻¹ s⁻¹ in assay [5].

B2: MBP-SD0 (super degron SD0 fused to maltose binding protein) (designed binder, not shown: large carriers)
chain: FNVLMVHKRSHTGERPLQCEICGFTCRQKGNLLRHIKLHTGEKPFKCHLCNYACQRRDAL
notes: also called MBP-degron
As for B2, the affinity in assay [3], expressed as Kd, was 217 nM. Further, in assay [5], the koff is 0.0509 s⁻¹ and the kon turned out to be 235000 M⁻¹ s⁻¹.
